Assay results as given in patent publication US20150133524.

Molecular target: PDH E1α subunit (pyruvate dehydrogenase E1 alpha subunit, 41 kDa) (UniProt P35486)
Sequence (P35486 30-390): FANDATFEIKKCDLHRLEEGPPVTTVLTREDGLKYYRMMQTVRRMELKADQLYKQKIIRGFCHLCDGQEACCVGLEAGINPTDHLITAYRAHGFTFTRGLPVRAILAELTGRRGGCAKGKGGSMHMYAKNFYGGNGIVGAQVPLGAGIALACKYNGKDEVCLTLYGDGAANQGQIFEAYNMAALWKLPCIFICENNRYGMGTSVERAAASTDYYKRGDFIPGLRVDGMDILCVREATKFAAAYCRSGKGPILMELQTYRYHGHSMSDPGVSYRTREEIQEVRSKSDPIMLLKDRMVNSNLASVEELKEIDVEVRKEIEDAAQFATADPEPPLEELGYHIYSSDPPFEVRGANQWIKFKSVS

Sequence of human PDK1 (pyruvate dehydrogenase kinase, isoenzyme 1) (chain, as listed by the source): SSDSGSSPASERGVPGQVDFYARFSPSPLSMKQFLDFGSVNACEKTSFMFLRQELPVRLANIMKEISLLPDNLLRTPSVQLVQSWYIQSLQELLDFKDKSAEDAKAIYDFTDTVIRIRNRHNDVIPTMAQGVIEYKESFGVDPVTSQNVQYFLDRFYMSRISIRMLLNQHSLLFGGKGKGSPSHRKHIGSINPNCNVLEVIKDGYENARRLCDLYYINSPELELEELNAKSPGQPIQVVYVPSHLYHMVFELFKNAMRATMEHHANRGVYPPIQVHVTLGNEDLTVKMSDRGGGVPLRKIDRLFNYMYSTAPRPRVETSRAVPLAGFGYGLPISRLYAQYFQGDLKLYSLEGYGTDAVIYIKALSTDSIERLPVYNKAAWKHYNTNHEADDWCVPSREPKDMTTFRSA

## human PDK1 (pyruvate dehydrogenase kinase, isoenzyme 1)
  PDH E1α subunit phosphorylation (immunoblot after two-dimensional gel electrophoresis of lysates of Hif1a-/- MEFs with forced PDK1 expression against empty vector): This overexpression resulted in increased PDH E1α subunit phosphorylation
